The results in this text go back to the supplement of paper PMC10567573.

Sequences and labels used below:
B1: ANKRD40 (parent)
chain: VRIQNPSLRENDFIEIELDRQELT
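Note: lentivirally expressed fusions sorted by FACS into six bins by GFP to DsRed ratio, PSI derived from sequencing read proportions per bin multiplied by bin number.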

This series covers variants of B1. Nature of the series: protein stability index of a GFP-peptide fusion (GPS, HEK-293T) (PSI 1-6); higher = more stable. As to conditions: c terminus: a fixed tail appended.
Turning to ARIQNPSLRENDFIEIELDRQELT [V1A], the protein stability index amounted to 3.91.
With QRIQNPSLRENDFIEIELDRQELT [V1Q] the figure was 4.27; with DRIQNPSLRENDFIEIELDRQELT [V1D], 5.15; with GRIQNPSLRENDFIEIELDRQELT [V1G], 4.27.
With MRIQNPSLRENDFIEIELDRQELT [V1M], the protein stability index turned out to be 2.79.
On to VRIQNPNLRENDFIEIELDRQELT [S7N], for which the protein stability index was 2.79.
With VRIQNPPLRENDFIEIELDRQELT [S7P] the figure was 3.72; with VRIQNPILRENDFIEIELDRQELT [S7I], 2.56; with VRIQNPALRENDFIEIELDRQELT [S7A], 2.76.
Under VRIQNPTLRENDFIEIELDRQELT [S7T] stands 3.04; under VRIQNPQLRENDFIEIELDRQELT [S7Q], 2.82.
With VRIQNPDLRENDFIEIELDRQELT [S7D] the figure was 2.91.
For VRIQNPSLRENDFIEISLDRQELT [E17S], the protein stability index was determined as 2.15.
With VRIQNPSLRENDFIEIHLDRQELT [E17H], the protein stability index amounted to 2.62.
Under VRIQNPSLRENDFIEIKLDRQELT [E17K] stands 2.27.
With VRIQNPSLRENDFIEIMLDRQELT [E17M] the figure was 1.81; with VRIQNPSLRENDFIEIYLDRQELT [E17Y], 2.22; with VRIQNPSQRENDFIEIELDRQELT [L8Q], 3.11.
Under VRIQNPSPRENDFIEIELDRQELT [L8P] stands 3.13.
As to VRIQNPSMRENDFIEIELDRQELT [L8M], the protein stability index was 2.42.
Under VRIQNPSIRENDFIEIELDRQELT [L8I] stands 3.35; under VRIQNPSGRENDFIEIELDRQELT [L8G], 2.08; under VRIQNPSVRENDFIEIELDRQELT [L8V], 2.41.
With VRIQNPSLRENDFIEKELDRQELT [I16K], the protein stability index stood at 4.69.
Under VRIQNPSLRENDFIEYELDRQELT [I16Y] stands 3.15.
With VRIQNPSLRENDFIEQELDRQELT [I16Q] the figure was 4.68.
Turning to VRIQNPSLRENDFIEMELDRQELT [I16M], the protein stability index was found to be 3.49.
With VRIQNPSLRENDFIETELDRQELT [I16T] the figure was 4.44; with VRIQNPSLRENDFIEVELDRQELT [I16V], 3.49; with VRIQNPSLRENDFIWIELDRQELT [E15W], 1.97.
Under VRIQNPSLRENDFIPIELDRQELT [E15P] stands 3.49.
On to VRIQNPSLRENDFIFIELDRQELT [E15F], for which the protein stability index was 1.82.
With VRIQNPSLRENDFINIELDRQELT [E15N] the figure was 3.29.
With VRIQNPSLRENDFIVIELDRQELT [E15V] the figure was 1.89; with VRIQNPSLRENDFIAIELDRQELT [E15A], 2.38; with VRIQNPSLRENDFIDIELDRQELT [E15D], 2.95.
Under VRIQNPSLRENDFIMIELDRQELT [E15M] stands 1.95; under VRIQNPSLRENDFISIELDRQELT [E15S], 2.02; under VRIQNPSLRENDFIKIELDRQELT [E15K], 2.47.
As to VRIQNPSLRENDFMEIELDRQELT [I14M], the protein stability index came out at 3.34.
In the case of VRIQNPSLRENDFYEIELDRQELT [I14Y], the protein stability index is 3.73.
Under VRIQNPSLRENDFTEIELDRQELT [I14T] stands 3.88.
Under VRIQNPSLRENDFDEIELDRQELT [I14D] stands 5.22; under VRIQNPSLRENDFGEIELDRQELT [I14G], 3.87; under VRIQNPSLRENDFEEIELDRQELT [I14E], 4.92.
With VRIQNPSLRENDFFEIELDRQELT [I14F] the figure was 2.87; with VRIQNLSLRENDFIEIELDRQELT [P6L], 2.17; with VRIQNKSLRENDFIEIELDRQELT [P6K], 2.67.
Regarding VRIQNFSLRENDFIEIELDRQELT [P6F], the protein stability index was 1.66.
With VRIQNHSLRENDFIEIELDRQELT [P6H] the figure was 2.65; with VRIQNQSLRENDFIEIELDRQELT [P6Q], 2.6; with VRIQNISLRENDFIEIELDRQELT [P6I], 1.52.
Under VRIQNCSLRENDFIEIELDRQELT [P6C] stands 2.06.
Under VRIQNRSLRENDFIEIELDRQELT [P6R] stands 2.69.
As to VRIQNWSLRENDFIEIELDRQELT [P6W], the protein stability index was 1.77.
With VRIQNPSLRENDFIEIELDRQNLT [E22N] the figure was 2.34.
With VRIQNPSLRENDFIEIELDRQPLT [E22P] the figure was 2.34.
Under VRIQNPSLRENDFIEIELDRQGLT [E22G] stands 1.92; under VRIQNPSLRENDFIEIELDRQYLT [E22Y], 2.37.
As for VRIQNPSLRENDFIEIELDRQFLT [E22F], the protein stability index turned out to be 2.47.
With VRIQNPSLRENDFIEIELDRQQLT [E22Q] the figure was 1.86; with VRIQNPSLRENDFIEIELDRQALT [E22A], 2.36; with VRIGNPSLRENDFIEIELDRQELT [Q4G], 2.36.
Under VRICNPSLRENDFIEIELDRQELT [Q4C] stands 2.01; under VRIENPSLRENDFIEIELDRQELT [Q4E], 2.31.
Under VRIDNPSLRENDFIEIELDRQELT [Q4D] stands 2.88; under VRIFNPSLRENDFIEIELDRQELT [Q4F], 1.92.
As to VRIKNPSLRENDFIEIELDRQELT [Q4K], the protein stability index came to 2.09.
Under VRIQNPSLRENDFIEIELDRQEDT [L23D] stands 4.25; under VRIQNPSLRENDFIEIELDRQETT [L23T], 3.52; under VRIQNPSLRENDFIEIELDRQEYT [L23Y], 2.48.
With VRIQNPSLRENDFIEIELDRQERT [L23R] the figure was 3.73.
With VRIQNPSLRENDFIEIELDRQEGT [L23G] the figure was 3.99; with VRIQNPSLRENDFIEIELDRQEPT [L23P], 3.26.
In the case of VRIQNPSLRENDFIEIELDRQEFT [L23F], the protein stability index stood at 2.07.
Under VRIQNPSLRENDFIEIELDRQEQT [L23Q] stands 3.44.
With VRIQNPSLRENDFIEIELDRQEVT [L23V], the protein stability index worked out at 2.95.
With VRNQNPSLRENDFIEIELDRQELT [I3N] the figure was 4.28.
Under VRFQNPSLRENDFIEIELDRQELT [I3F] stands 2.44; under VRCQNPSLRENDFIEIELDRQELT [I3C], 3.22; under VRDQNPSLRENDFIEIELDRQELT [I3D], 4.9.
Under VRKQNPSLRENDFIEIELDRQELT [I3K] stands 3.44; under VRHQNPSLRENDFIEIELDRQELT [I3H], 4.17.
For the variant VREQNPSLRENDFIEIELDRQELT [I3E], the protein stability index was determined as 4.63.
Under VRTQNPSLRENDFIEIELDRQELT [I3T] stands 3.9.
Take VRMQNPSLRENDFIEIELDRQELT [I3M]: the protein stability index came to 3.61.
Under VRIQNPSLRENDWIEIELDRQELT [F13W] stands 2.44.
With VRIQNPSLRENDRIEIELDRQELT [F13R] the figure was 3.43; with VRIQNPSLRENDLIEIELDRQELT [F13L], 3.42.
Regarding VRIQNPSLRENDIIEIELDRQELT [F13I], the protein stability index was 2.36.
Under VRIQNPSLRENDTIEIELDRQELT [F13T] stands 3.76; under VRIQNPSLRENDGIEIELDRQELT [F13G], 4.11; under VRIQNPSLRENDPIEIELDRQELT [F13P], 4.53.
Under VRIQNPSLRENDSIEIELDRQELT [F13S] stands 4.39.
